# Where two headings read alike, the source gives them in different places.
# How the values were obtained:
# [1] = target: T1, HCV-1 sE1E2.Cut1+2.SPYΔN-His6 (Hepatitis C virus genotype 1a, isolate …, UniProt P26664, stabilised); assay: negative-stain electron microscopy
# HCV-1 E1E2 = HCV-1 E1E2 (Hepatitis C virus genotype 1a, isolate …, UniProt P26664, strain); assay: ELISA
# [2] = target: T1, HCV-1 sE1E2.Cut1+2.SPYΔN-His6; assay: BLI
# [3] = target: T1, HCV-1 sE1E2.Cut1+2.SPYΔN-His6; assay: BLI; remark: listed apart in the source
# H77 E1E2, wild type [4] = target: T2, H77 E1E2, wild type (Hepatitis C virus genotype 1a, isolate …); assay: ELISA
# H77 E1E2, wild type [5] = target: T2, H77 E1E2, wild type; assay: ELISA; remark: listed apart in the source
binder,measurement,setting,value
"AR4A Fab (Fab, V domains shown) VH: VQLLEQSGPEVKKPGDSLRISCKMSGDSLVTTWIGWVRQKPGQGLEWMGIINPGDSSTNIYPGDSATRYGPSFQGQVTISIDKSTSTAYLQWNNVKASDTGIYYCARHVPVPISGTFLWREREMHDFGYFDDWGQGTLVIVSS VL: ELTLTQSPGTLSLSPGERATLSCRASQSVSNNYLAWYQQKPGQAPRLLIYGASSRATGIPDRFSGSGSGTGFTLIISRLEPEDFAVYYCQQYGSSSITFGQGTRLEIK",binding result,[1],binds
"AR4A (IgG) (antibody, V domains shown) VH: VQLLEQSGPEVKKPGDSLRISCKMSGDSLVTTWIGWVRQKPGQGLEWMGIINPGDSSTNIYPGDSATRYGPSFQGQVTISIDKSTSTAYLQWNNVKASDTGIYYCARHVPVPISGTFLWREREMHDFGYFDDWGQGTLVIVSS VL: ELTLTQSPGTLSLSPGERATLSCRASQSVSNNYLAWYQQKPGQAPRLLIYGASSRATGIPDRFSGSGSGTGFTLIISRLEPEDFAVYYCQQYGSSSITFGQGTRLEIK",binding result,HCV-1 E1E2,binds
same,binding result,[2],binds
"RM3-26 (IgG) (antibody, V domains shown) VH: QLQLQESGPGLVKPSETLSLTCIVSGGSISGYSWNWIRQPPGKGLEWIGNIFSGGDDANYNPSLKSRVTLSVDTSKNHFSLRLSSVTAADTAVYYCARHSAGFITGRYFELWGQGALVTVSS VL: DIQMTQSPSSLSASLGDRVTITCRANQDISSSLAWYQQKPGKAPKPLIYYASNLESGVPSRFRGSGSGTEFTLTISSLQSEDFAVYYCQQYNSDPLTFGGGTKVEIK",binding result,[3],binds
"RM3-26 variant, heavy chain CDRH3 T100a to alanine, wild-type light chain (antibody, V domains shown) VH: QLQLQESGPGLVKPSETLSLTCIVSGGSISGYSWNWIRQPPGKGLEWIGNIFSGGDDANYNPSLKSRVTLSVDTSKNHFSLRLSSVTAADTAVYYCARHSAGFIAGRYFELWGQGALVTVSS VL: DIQMTQSPSSLSASLGDRVTITCRANQDISSSLAWYQQKPGKAPKPLIYYASNLESGVPSRFRGSGSGTEFTLTISSLQSEDFAVYYCQQYNSDPLTFGGGTKVEIK",binding result,"H77 E1E2, wild type [4]",no binding (tested: 1 µg/mL (methods))
"RM3-26 variant, heavy chain CDRH3 Y100d to alanine, wild-type light chain (antibody, V domains shown) VH: QLQLQESGPGLVKPSETLSLTCIVSGGSISGYSWNWIRQPPGKGLEWIGNIFSGGDDANYNPSLKSRVTLSVDTSKNHFSLRLSSVTAADTAVYYCARHSAGFITGRAFELWGQGALVTVSS VL: DIQMTQSPSSLSASLGDRVTITCRANQDISSSLAWYQQKPGKAPKPLIYYASNLESGVPSRFRGSGSGTEFTLTISSLQSEDFAVYYCQQYNSDPLTFGGGTKVEIK",binding result,"H77 E1E2, wild type [4]",no binding (tested: 1 µg/mL (methods))
"RM3-26 variant, heavy chain CDRH1 Y32 to alanine, wild-type light chain (antibody, V domains shown) VH: QLQLQESGPGLVKPSETLSLTCIVSGGSISGASWNWIRQPPGKGLEWIGNIFSGGDDANYNPSLKSRVTLSVDTSKNHFSLRLSSVTAADTAVYYCARHSAGFITGRYFELWGQGALVTVSS VL: DIQMTQSPSSLSASLGDRVTITCRANQDISSSLAWYQQKPGKAPKPLIYYASNLESGVPSRFRGSGSGTEFTLTISSLQSEDFAVYYCQQYNSDPLTFGGGTKVEIK",binding result,"H77 E1E2, wild type [4]",binds
"RM3-26 variant, light chain CDRL2 Y50 to alanine, wild-type heavy chain (antibody, V domains shown) VH: QLQLQESGPGLVKPSETLSLTCIVSGGSISGYSWNWIRQPPGKGLEWIGNIFSGGDDANYNPSLKSRVTLSVDTSKNHFSLRLSSVTAADTAVYYCARHSAGFITGRYFELWGQGALVTVSS VL: DIQMTQSPSSLSASLGDRVTITCRANQDISSSLAWYQQKPGKAPKPLIYAASNLESGVPSRFRGSGSGTEFTLTISSLQSEDFAVYYCQQYNSDPLTFGGGTKVEIK",binding result,"H77 E1E2, wild type [4]",binds
"RM3-26 variant, heavy chain CDRH3 R100c to alanine, wild-type light chain (antibody, V domains shown) VH: QLQLQESGPGLVKPSETLSLTCIVSGGSISGYSWNWIRQPPGKGLEWIGNIFSGGDDANYNPSLKSRVTLSVDTSKNHFSLRLSSVTAADTAVYYCARHSAGFITGAYFELWGQGALVTVSS VL: DIQMTQSPSSLSASLGDRVTITCRANQDISSSLAWYQQKPGKAPKPLIYYASNLESGVPSRFRGSGSGTEFTLTISSLQSEDFAVYYCQQYNSDPLTFGGGTKVEIK",binding result,"H77 E1E2, wild type [4]",binds
"RM3-26 variant, light chain CDRL3 Y91 to alanine, wild-type heavy chain (antibody, V domains shown) VH: QLQLQESGPGLVKPSETLSLTCIVSGGSISGYSWNWIRQPPGKGLEWIGNIFSGGDDANYNPSLKSRVTLSVDTSKNHFSLRLSSVTAADTAVYYCARHSAGFITGRYFELWGQGALVTVSS VL: DIQMTQSPSSLSASLGDRVTITCRANQDISSSLAWYQQKPGKAPKPLIYYASNLESGVPSRFRGSGSGTEFTLTISSLQSEDFAVYYCQQANSDPLTFGGGTKVEIK",binding result,"H77 E1E2, wild type [4]",binds
"K400 Fab (Fab, V domains shown) VH: EVQLVQSGAEVKTPGASVRVSCTASGDTFTNHDIHWVRQAPGQGLEWMGGMNADSGKTAYAQKFQGRVSMTINTPTNTAYMDLSSLRSEDTALYYCARGDGLDFTLFGVAHYSYYNGVGVWGHGTTITVSS VL: EIVMTQSPLALPVTPGEPASIFCKSSHSLLHYNGYTYLDWYLQKPGQSPQLLIYLGSNRASGVPDRFSGSGSGTEFTLKISRVEAEDVGVYYCMQALQTPITFGQGTRLEIK",binding result,[1],binds
"K400 (antibody) (antibody, V domains shown) VH: EVQLVQSGAEVKTPGASVRVSCTASGDTFTNHDIHWVRQAPGQGLEWMGGMNADSGKTAYAQKFQGRVSMTINTPTNTAYMDLSSLRSEDTALYYCARGDGLDFTLFGVAHYSYYNGVGVWGHGTTITVSS VL: EIVMTQSPLALPVTPGEPASIFCKSSHSLLHYNGYTYLDWYLQKPGQSPQLLIYLGSNRASGVPDRFSGSGSGTEFTLKISRVEAEDVGVYYCMQALQTPITFGQGTRLEIK",binding result,"H77 E1E2, wild type [5]",binds
same,binding result,HCV-1 E1E2,binds
"K595 Fab (Fab, V domains shown) VH: EVQLLESGGGLVQPGGSLRLSCAASGFTFSNYVMTWARQAPGKGLEWVSSISDSGGNADYAHSVRGRFTISRDNSKNTLFLHMNSLRVEDTAVYHCAKALIAPGSLFRDQLLNWFDFWGQGTRVTVSS VL: DIQMTQSPSTLSASVGDRVTITCRASQSIGNWLAWYQQKPGKAPKLLIYQASTLKSGVPSRFSGSGSGTEFSLTISSLQPDDLATYFCQQYNGSPLTFAGGTKVEIK",binding result,[1],binds
"K595 (antibody) (antibody, V domains shown) VH: EVQLLESGGGLVQPGGSLRLSCAASGFTFSNYVMTWARQAPGKGLEWVSSISDSGGNADYAHSVRGRFTISRDNSKNTLFLHMNSLRVEDTAVYHCAKALIAPGSLFRDQLLNWFDFWGQGTRVTVSS VL: DIQMTQSPSTLSASVGDRVTITCRASQSIGNWLAWYQQKPGKAPKLLIYQASTLKSGVPSRFSGSGSGTEFSLTISSLQPDDLATYFCQQYNGSPLTFAGGTKVEIK",binding result,HCV-1 E1E2,binds
